From US20130323786A1 (Biogen, published 2013)
Changes are numbered by the printed parent chain. Names and notes keep the numbering of the source.

T1: LINGO-Fc (human, UniProt Q96FE5 40-538, limits assumed)
T1 construct: not shown: Fc part
T1 sequence: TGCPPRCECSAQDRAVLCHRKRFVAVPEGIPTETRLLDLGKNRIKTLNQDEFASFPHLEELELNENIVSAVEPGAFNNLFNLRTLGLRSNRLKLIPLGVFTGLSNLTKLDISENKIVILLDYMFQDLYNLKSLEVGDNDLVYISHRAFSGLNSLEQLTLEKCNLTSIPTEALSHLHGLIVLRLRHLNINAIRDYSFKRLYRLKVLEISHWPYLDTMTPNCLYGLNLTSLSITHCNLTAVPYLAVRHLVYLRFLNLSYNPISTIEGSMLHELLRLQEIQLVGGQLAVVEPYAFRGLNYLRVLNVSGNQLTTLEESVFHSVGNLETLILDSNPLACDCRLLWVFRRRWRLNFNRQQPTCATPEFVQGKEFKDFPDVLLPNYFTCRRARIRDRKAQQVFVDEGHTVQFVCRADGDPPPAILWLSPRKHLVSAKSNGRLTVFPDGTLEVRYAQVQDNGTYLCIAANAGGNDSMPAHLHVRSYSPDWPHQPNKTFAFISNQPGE

B1: WT Li33 (Table 11) (antibody, V domains shown)
VH: EVQLLESGGGLVQPGGSLRLSCAASGFTFSIYPMFWVRQAPGKGLEWVSWIGPSGGITKYADSVKGRFTISRDNSKNTLYLQMNSLRAEDTATYYCAREGHNDWYFDLWGRGTLVTVSS
VL: DIQMTQSPGTLSLSPGERATLSCRASQSVSSYLAWYQQKPGQAPRLLIYDASNRATGIPARFSGSGSGTEFTLTISSLQSEDFAVYYCQQYDKWPLTFGGGTKVEIKR
B2: Li33 variant P53L (SEQ ID NO:151) (antibody, V domains shown)
VH: B1 VH with P53L
VL: B1 VL
notes: unchanged chain from WT Li33
B3: Li33 variant I57F (SEQ ID NO:164) (antibody, V domains shown)
VH: B1 VH with I57F
VL: B1 VL
notes: unchanged chain from WT Li33
B4: Li33 variant I57P (SEQ ID NO:184) (antibody, V domains shown)
VH: B1 VH with I57P
VL: B1 VL
notes: unchanged chain from WT Li33
B5: Li33 variant I57G (SEQ ID NO:159) (antibody, V domains shown)
VH: B1 VH with I57G
VL: B1 VL
notes: unchanged chain from WT Li33
B6: Li33 variant I57L (SEQ ID NO:163) (antibody, V domains shown)
VH: B1 VH with I57L
VL: B1 VL
notes: unchanged chain from WT Li33
B7: Li33 variant P53G (SEQ ID NO:180) (antibody, V domains shown)
VH: B1 VH with P53G
VL: B1 VL
notes: unchanged chain from WT Li33
B8: Li33 variant P53S (SEQ ID NO:152) (antibody, V domains shown)
VH: B1 VH with P53S
VL: B1 VL
notes: unchanged chain from WT Li33
B9: Li33 variant I57W (SEQ ID NO:181) (antibody, V domains shown)
VH: B1 VH with I57W
VL: B1 VL
notes: unchanged chain from WT Li33
B10: Li33 variant I57V (SEQ ID NO:185) (antibody, V domains shown)
VH: B1 VH with I57V
VL: B1 VL
notes: unchanged chain from WT Li33
B11: Li33 variant I57T (SEQ ID NO:186) (antibody, V domains shown)
VH: B1 VH with I57T
VL: B1 VL
notes: unchanged chain from WT Li33
B12: Li33 variant I57N (SEQ ID NO:161) (antibody, V domains shown)
VH: B1 VH with I57N
VL: B1 VL
notes: unchanged chain from WT Li33
B13: Li33 variant I57M (SEQ ID NO:160) (antibody, V domains shown)
VH: B1 VH with I57M
VL: B1 VL
notes: unchanged chain from WT Li33
B14: Li33 variant I57S (SEQ ID NO:183) (antibody, V domains shown)
VH: B1 VH with I57S
VL: B1 VL
notes: unchanged chain from WT Li33
B15: Li33 variant I57H (SEQ ID NO:162) (antibody, V domains shown)
VH: B1 VH with I57H
VL: B1 VL
notes: unchanged chain from WT Li33
B16: Li33 variant I57Y (SEQ ID NO:182) (antibody, V domains shown)
VH: B1 VH with I57Y
VL: B1 VL
notes: unchanged chain from WT Li33

Molecular target: T1, LINGO-Fc
Assay: direct ELISA on LINGO-Fc; half-maximal concentration relative to Li33;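 further: direct binding ELISA on plates coated with LINGO-Fc, concentration giving half of saturating binding, expressed as a ratio to the same value for the comparator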
Method: (§1) A direct binding ELISA assay was performed using LINGO-Fc coated plates. The half maximal concentration that gave 50% saturation of binding was measured and is reported as a ratio of the same measurement for Li33. In addition, the OD450 for maximal saturation value was measured and is reported as a ratio of the same measurement for Li33.

Row | Binder | ELISA Ratio [ratio]
1 | B1 | 1
2 | B2 | 2.2
3 | B3 | 2
4 | B4 | 0.6
5 | B5 | 2.3
6 | B6 | 0.7
7 | B7 | 3.1
8 | B8 | 2.5
9 | B9 | 0
10 | B10 | 1.4
11 | B11 | 1.1
12 | B12 | 2.9
13 | B13 | 3.8
14 | B14 | 0.6
15 | B15 | 3.2
16 | B16 | 0

Molecular target: T1, LINGO-Fc
Assay: direct ELISA on LINGO-Fc; OD450 at saturation relative to Li33;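 further: binding to plate-coated LINGO-Fc read by OD450, with the value at maximal saturation divided by the corresponding Li33 value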
Method: as §1

Row | Binder | Plateau Ratio [ratio]
17 | B1 | 0.91
18 | B2 | 1.13
19 | B3 | 0.83
20 | B4 | 1.27
21 | B5 | 0.91
22 | B6 | 1
23 | B7 | 0.83
24 | B8 | 1.43
25 | B10 | 1.13
26 | B11 | 1.01
27 | B12 | 1.1
28 | B13 | 1.09
29 | B14 | 0.96
30 | B15 | 1.07
